Measured values as given in the supplement of paper PMC10567573.

B1: FAM189A2 (parent)
chain: GSEAAVIPLDLGCTQVTQDGDIPN

Variants of: B1
Test: protein stability index of a GFP-peptide fusion (GPS, HEK-293T) (PSI 1-6); higher = more stable
Settings: c terminus: a fixed tail appended
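Note: lentivirally expressed fusions sorted by FACS into six bins by GFP to DsRed ratio, PSI derived from sequencing read proportions per bin multiplied by bin number.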

Protein stability index, by site and new letter:
D10: R 5.07
G1: A 5.53 | D 5.34 | R 5.24 | T 5.58 | M 5.33 | N 5.46 | L 5.43 | S 5.22 | F 4.84 | H 5.29 | Y 4.26 | Q 5.44 | E 5.05
L9: F 4.92 | Q 5.69 | N 5.55 | V 5.42 | P 5.46 | G 5.85 | M 5.6 | E 5.41 | S 5.7 | H 5.47 | R 5.22 | Y 5.31 | I 5.15 | W 4.67 | T 5.5
V6: C 5.43 | I 5.25 | D 5.63 | F 4.91 | R 5.57 | A 5.5 | H 5.51 | S 5.58 | T 5.58 | W 4.92 | K 5.71 | M 5.25 | Y 5.35
G12: Q 5.44 | T 5.38 | Y 5.05 | L 4.93 | M 4.82 | P 5.52 | H 4.87 | A 5.5 | S 4.37 | R 4.87 | K 5.2 | F 4.76 | E 4.86 | C 4.6 | V 5.16 | W 4.62 | N 5.09
A4: W 4.53 | S 5.24 | Y 4.79 | L 5.34 | V 4.97 | Q 5.36 | E 5.57 | H 4.7 | F 4.44 | M 4.81 | T 5.27 | K 5.49 | R 5.4
D19: H 4.91 | C 4.4 | M 4.61 | L 4.78 | E 5.34 | T 5.25 | P 5.06 | W 4.37 | K 5.19 | A 5.36 | R 4.57 | S 4.62 | G 5.24 | N 4.8
C13: D 5.46 | M 4.93 | F 5.04 | N 5.61 | K 5.18 | E 5.54 | G 5.54 | Y 5.3 | A 5.17 | W 4.36 | I 5.73 | R 5.33 | P 5.67 | T 5.48
I22: C 5.67 | K 5.65 | R 5.22 | W 5.34 | V 5.54 | A 5.72 | Y 5.26 | S 5.64 | E 5.53 | Q 5.31 | M 5.08
Q18: M 4.83 | H 5.22 | S 5.54 | L 5.25 | V 4.92 | N 4.68 | G 5.49 | K 5.17 | F 4.26 | C 5.27 | P 5.18 | R 5.09
G20: P 4.97 | H 5.53 | E 5.62 | W 4.73 | D 5.56 | C 5.3 | F 4.18 | Y 5.09 | L 5.04 | Q 4.75 | K 5.28 | V 4.97 | I 5.29 | R 4.89 | N 5.31
D21: T 4.97 | R 4.69 | V 4.94 | H 4.38 | L 4.52 | A 5.07 | M 4.05 | G 5.27 | N 4.77 | Q 4.92 | Y 4.46 | W 3.76 | C 4.71
I7: Y 5.32 | M 5.24 | S 5.58 | N 5.66 | E 5.78 | P 5.47 | V 5.23 | Q 5.24 | H 5.23 | W 4.79 | F 4.96 | L 4.86 | T 5.67 | K 5.23 | G 5.6 | D 5.93
